The RNAGym collection of RNA variant scans (doi:10.1073/pnas.2313332121)

B1: TPR t1 (parent)
chain: GACCAAUCUGCCCUCAGAGCUCGAGAACAUCUUCGGAUGCAGAGGAGGCAGGCUUCGGUGGCGCGAUAGCGCCAACGUCCUCAACCUCCAAUGCAUCCCACCACAUGAUGAUGCCUGAAGAGCCUUGGUUUUUUG

Variants of: B1
Assay: polymerase ribozyme fitness, log enrichment relative to wild type (log ratio); higher = more active; in vitro selection for triplet polymerase activity
In short: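 To select mutant libraries of each subunit of a heterodimeric triplet polymerase ribozyme, built by PCR and transcribed, each was annealed with a biotinylated primer, partner subunit and triplets, then incubated frozen at −7 °C. Extended constructs were gel-excised, captured on streptavidin beads and amplified by RT-PCR, in one round carried out in triplicate. Illumina sequencing of input and output libraries kept genotypes with ≥10 input reads and ≥1 read per output. Fitness is the base-2 logarithm of genotype enrichment relative to wild-type enrichment, from inverse-variance-weighted replicate averages.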

First: GACCAAUCUGCCCUCAGUGCUCGAGAACAUCUUCGGAUGCAGAGGAGGGAGGCUUCGGUGGCGCGAUAGCGCCAACGUCCUCAACCUCCAGUGCAUCCCACCACAUGAUGAUGCCUGAAGAGCCUUGGUUUUUUG [A18U C49G A91G]
Second: GACCAAUCUGCCCUCAGUGCUCGAGAACAUCUUCGGAUGCAGAGGAGGCAGGCUUCGGUGGCGCGAUAGCGCGAACGUCCUCAACCUCCAAUGCAUCCCUCCACAUGAUGAUACCUGAAGAGCCUUGAUUUUUUG [A18U C73G A100U G113A G128A]
The “polymerase ribozyme fitness (log ratio)” value of the first is higher: -3.84 for the first, -5.47 for the second.

Compared with GACCAAUCUGCCCUCAGUGCUCGAGAACAUCUUCGGAUGCAGAGGAGGCAGGCUUCGGUGGCGCGAUAGCGCCAACGUUCUCAACCUCCAAUGCAUCCCAGCACAUGAUGAUGCCUGAAGAGCCUUGGUUUUUUG [A18U C79U C101G], GACCAAUCUGCCCUCAGUGCUCGAGAACAUUUUCGGAUGCAGAGGAGGCAGGCUUCGGUGGCGCGAUAGCGCCAACGUCCUCAACCUCCAAUGCAUCCCACCACAUGAUGAUGCCUGAAGAGCCUUGGUUUUUUG [A18U C31U] is lower in “polymerase ribozyme fitness (log ratio)” value: -4.83 for the first, -5.66 for the second.

Going from GACCAAUCUGCCCUCAGUGCUCGAGAACAUCUUCGGAUGCAGAGGAGGCAGGCUUCGGUGGCGCGAUAGCGCCAAAGUCCUCAACCUCCAAUCCAUCCCACCACAUGAUGAUGCCUGAAGAGCCUUGGUUUUUUG [A18U C76A G93C] to GACCAAUCUGCCCUCAGUGCUCGAGAACAUCUUCGGAUGCAGAGGUGGCAGGCUUCGGUGGCGCGAUAGCGCCAACGUCCUCAACCUCCAAUGCAUUCCACCUCAUGAUGAUGCCUGAAUAGGCUUGGUUUUUUG [A18U A46U C97U A103U G120U C123G], the “polymerase ribozyme fitness (log ratio)” value falls from -4.09 to -6.88.

Compared with GACCAAUCUGCCCUCAGUGCUCGAGAACAUCUUCGGAUGCAGAGGAGGCAGGCUUCGGUGGCGCGCUAGCGCCAACGUCCUCAACCUCCAAUGCAUCCCACCACAUGAUGAUGCCUGAAGAGCCUUGGUUUUUUG [A18U A66C], GACCAAUCUGCCCUCAGUGCUCGAGAACAUCUUCGGAUGCAGAGGAGGUAGGCUUCGGUGGCGCGAUUGCGCCAACGUCCUCAACCUCCAAAGCAACCCACCACAUGAUCAUGCCUGAAGAGCCUUGGUUUUUUG [A18U C49U A68U U92A U96A G110C] is lower in “polymerase ribozyme fitness (log ratio)” value: -4.55 for the first, -7.53 for the second.

Compared with GACCAAUCUGCCCUCAGUGCUCGAGAACAUCUUCGGAUGCAGAGGAGGCAGGCUUCGGUGGCGCGAUAGCGCCAACGUCCUCAACCUCAAAUGCAUCCCACCACAUGAUGAUGCCUGAAGAGCCUUGGUUUUAUG [A18U C89A U133A], GACCAAUCUGCCCUCAGUGCUCGAGAACAUCUUCGGAUGCAGAGGAGGCAGGCUUCGGUGGCGCGAUAGCGCCUACGUCCUCAACCUCCAAUGCAUCCCACCACAUGAUGAUGCCUGAAGAGCCUUGGUUUUUUG [A18U A74U] is lower in “polymerase ribozyme fitness (log ratio)” value: -2.21 for the first, -3.3 for the second.

Going from GACCAAUCUGCCCUCAGUGCUCGAGAACAUCUUCGGAUGCAGAGGAGGCAGGCUUCGGUGGCGCGAUAGCGGCAACGUCCUCAACCUCCAAUGCAUCCCACCACAUGAUGAUGCCUGAAGAGCCUUGGUAUUUUG [A18U C72G U130A] to GACCAAUCUGCCCUCAGUGCUCGAGAACAUCUUCGGAUGGAGAGGAGGCAGGCUUCGGUGGCGCGAUAGCGCCAACGUCCUCAACCUCCAAUGCAUCCCACCACAUGAUGAUGCCUGAAGAGCCUUGGUUUUUUG [A18U C40G], the “polymerase ribozyme fitness (log ratio)” value rises from -4.54 to -4.04.

First: GACCAAUCUGCCCUCAGUGCUCGAGAACAUCUUCGGAUGCAGAGGGGGCAGACUUCGGUGGCGCGAUAGCGCCAACGUCCUCAACCUCCAAUGCAUCCCACCACAUGAUGAUGCCUGUAGAGCCUUGGUUUUUUG [A18U A46G G52A A118U]
Second: GACCAAUCUGCCCUCAGUGCUCGAGAACAUCUUCGGAUGCAGAGGAGGCAGGCUUCGGUGGCGCGAUAGCGCCAACGUCCUCAACCUCCAAUGCAUCCCACCACAUGAUGGUGCCUGAAGAGCCUUGGAUUUUUG [A18U A111G U129A]
The “polymerase ribozyme fitness (log ratio)” value of the first is higher: -2.9 for the first, -4.75 for the second.

Going from GACCAAUCUGCCCUCAGUGCUCGAGAACAUCUUCGGAUGCAGAGGAGGCAGGCUUCGGUGGCGCGAUGGCGCCAACGUCCACAACCUCCAAUGCAUCCCACCACAUGAUGAUGCCUGAAGAGUCUUGGUUUUUUG [A18U A68G U81A C123U] to GACCAAUCUGCCCUCAGUGCUCGAGAACAUCUUCGGAUGCAGAGGAGGCUGGCUUCGGUGGCGCGAUAGCGCCAACGUCCUCAACCUCCAAUGCAUCCGCCCACAUGUUGAUGCCUGAAGAGCGUUGGUUUUUUG [A18U A50U C99G A100C A108U C124G], the “polymerase ribozyme fitness (log ratio)” value falls from -5.83 to -8.04.

First: GACCAAUCUGCCCUCAGUGCUCGAGAACUUCUUCGGAUGCAGAGGAGGCAGGCGUCGGUGGCGCGAUAGCGCCAACGCCCUCAACCUCGAAUGCAUCCCACCACAUGAUGAUGGCUGAAGAGCCUUGGUUUUUUG [A18U A29U U54G U78C C89G C114G]
Second: GACCAAUCUGCCCUCAGUGCUCGAGAACAUCUUCGGAUGCAGAGGAGGCAGGCUUCGGUGGAGCGAUAGCGCCAACGUCCUCAACCUCCAAUGCAUCCCACCACAUGAUGAUGCCUGAAGAGCCUUGGUUUUUUG [A18U C62A]
The “polymerase ribozyme fitness (log ratio)” value of the first is higher: -3.24 for the first, -4.11 for the second.

First: GACCAAUCUGCCCUCAGUGCUCGAGAACAUCUUCGGAUGCAGAGGAGGCAGGCUUCGGUGGCGCGAUAGUGCCAACGUCCUCAACCUCCAAUGCAUCCCACCACAUGAUGACGCCUGAAGAGCCUUGGUUUUUUG [A18U C70U U112C]
Second: GACCAAUCUGCCCUCAGUGCUCGAGAACAUCUUCGGAUGGAGAGGAGGCAGGCUUCGGUGGCGCGAUAGCGCCAACGUCCUCUACCUCCAAUGCAUCCCACCACAUGAUGAUGCCUGAAGAGCCUUGGUUUUUUG [A18U C40G A83U]
The “polymerase ribozyme fitness (log ratio)” value of the first is higher: -1.2 for the first, -4.16 for the second.

For GACCAAUCUGCCCUCAGUGCUCGAGAACAUCUUCGGAUGCAGAGGAGGCAGGCUUCGGUGGCGCGAUAGCGCCAUGGUCCUCAACCUCCAAUGCAUCCCACCACAUGAUGAUGCCUGAAGAGCCUUGGGUUUUUG [A18U A75U C76G U129G], the “polymerase ribozyme fitness (log ratio)” value was -5.7.
